Where a chain is given by its changes, count along the chain named. Several values for one entry are separate records, joined by “and”; a condition that tells them apart may be missing. Identical values can stand only once.

Common to all, as to experiment: SPR; biotinylated ADO or ADO mutant immobilised on a Biotin CAP chip (~2500-3000 RU), substrate peptide injected; Biacore T200, 4 °C; 20 mM HEPES pH 7.5, 500 mM NaCl, 10 mM DTT, 0.1% tween-20; 50 µL/minute; multi-cycle or single-cycle mode not given; each cell is one of three independent measurements
What all share (conditions): both partners purified
In general terms: Surface plasmon resonance follows binding to a sensor surface in real time, without labels.

The target of experiment [1] is T1, ADO-Y87F, N-terminally His-tagged and biotinylated (human, UniProt Q96SZ5 1-270, Y87F, biotin (biotinylated during expression)).
T1 construct: 2-aminoethanethiol dioxygenase (ADO), human, UniProt Q96SZ5, full length, site-directed mutant; source: E. coli Rosetta2(DE3), purified (Ni-NTA, SEC); not shown: biotinylation tag (from the vector pQE80L-Navi), N-terminal, kept
T1 sequence (looked up): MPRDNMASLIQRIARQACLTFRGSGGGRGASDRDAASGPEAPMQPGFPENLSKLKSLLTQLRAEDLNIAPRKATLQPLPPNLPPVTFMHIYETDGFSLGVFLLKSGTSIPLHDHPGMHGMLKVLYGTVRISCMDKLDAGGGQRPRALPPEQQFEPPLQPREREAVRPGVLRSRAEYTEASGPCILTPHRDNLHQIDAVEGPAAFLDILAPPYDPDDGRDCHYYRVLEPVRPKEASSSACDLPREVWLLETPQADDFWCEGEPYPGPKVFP

Experiment [2] has as its target T2, ADO-D206E, N-terminally His-tagged and biotinylated (human, UniProt Q96SZ5 1-270, D206E, biotin (biotinylated during expression)).
T2 construct: 2-aminoethanethiol dioxygenase (ADO), human, UniProt Q96SZ5, full length, site-directed mutant; source: E. coli Rosetta2(DE3), purified (Ni-NTA, SEC); not shown: biotinylation tag (from the vector pQE80L-Navi), N-terminal, kept
T2 sequence (looked up): T1 sequence (looked up) with F87Y, D206E

The target in experiment [3] is T3, ADO-Y212F, N-terminally His-tagged and biotinylated (human, UniProt Q96SZ5 1-270, Y212F, biotin (biotinylated during expression)).
T3 construct: 2-aminoethanethiol dioxygenase (ADO), human, UniProt Q96SZ5, full length, site-directed mutant; source: E. coli Rosetta2(DE3), purified (Ni-NTA, SEC); not shown: biotinylation tag (from the vector pQE80L-Navi), N-terminal, kept
T3 sequence (looked up): T1 sequence (looked up) with F87Y, Y212F

In experiment [4] the target is T4, ADO-C220A, N-terminally His-tagged and biotinylated (human, UniProt Q96SZ5 1-270, C220A, biotin (biotinylated during expression)).
T4 construct: 2-aminoethanethiol dioxygenase (ADO), human, UniProt Q96SZ5, full length, site-directed mutant; source: E. coli Rosetta2(DE3), purified (Ni-NTA, SEC); not shown: biotinylation tag (from the vector pQE80L-Navi), N-terminal, kept
T4 sequence (looked up): T1 sequence (looked up) with F87Y, C220A

Experiment [5] addresses T5, ADO-F101A, N-terminally His-tagged and biotinylated (human, UniProt Q96SZ5 1-270, F101A, biotin (biotinylated during expression)).
T5 construct: 2-aminoethanethiol dioxygenase (ADO), human, UniProt Q96SZ5, full length, site-directed mutant; source: E. coli Rosetta2(DE3), purified (Ni-NTA, SEC); not shown: biotinylation tag (from the vector pQE80L-Navi), N-terminal, kept
T5 sequence (looked up): T1 sequence (looked up) with F87Y, F101A

B1: IL32(2-15), synthetic peptide corresponding to the methionine excised N-terminus of IL32, residues 2-15 (peptide, UniProt P24001 2-15, looked up)
peptide: CFPKVLSDDMKKLK
notes: interleukin 32 (IL32), residues 2-15 (N-terminal Cys exposed); also called 14-mer IL32; source: synthetic peptide
The term Kd denotes the concentration at which binding is half-saturated. As to B1, the Kd was 303 nM and 327 nM and 329 nM in experiment [1]; 1210 nM and 1270 nM and 1440 nM in experiment [2]; 8760 nM and 9120 nM and 9820 nM in experiment [3]; 1440 nM and 1180 nM and 1430 nM in experiment [4]; 37900 nM and 35000 nM and 37600 nM in experiment [5].

Values taken from publication PMC12098869, “An mRNA-display derived cyclic peptide scaffold reveals the substrate binding interactions of an N-terminal cysteine oxidase” (Nature Communications, 2025).
